Measurements published in patent US20250064983A1, “COMPOSITIONS AND METHODS FOR TREATING A CARDIAC DISEASE” (The Children's Medical Center Corporation, priority 2022, published 2025).
Entries after “also recorded” stand apart in the source; their conditions may differ. Where no end group is shown, it is not given here.

T1: autocamtide-2-related inhibitory peptide (AIP)
T1 chain: YKKALHRQEAVDAL

T2: AIPx5 multimer
T2 chain: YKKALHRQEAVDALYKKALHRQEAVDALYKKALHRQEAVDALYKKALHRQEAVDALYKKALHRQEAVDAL


Columns and labels:
CaMKIIδ = CaMKIIδ (Homo sapiens, UniProt Q13557); test: in vitro inhibition of CaMKIIδ, bioluminescent ADP monitoring assay (ADP-GLO); type: biochemical; details: purified polypeptides
CaMKIIδ, sequence (Q13557 1-478): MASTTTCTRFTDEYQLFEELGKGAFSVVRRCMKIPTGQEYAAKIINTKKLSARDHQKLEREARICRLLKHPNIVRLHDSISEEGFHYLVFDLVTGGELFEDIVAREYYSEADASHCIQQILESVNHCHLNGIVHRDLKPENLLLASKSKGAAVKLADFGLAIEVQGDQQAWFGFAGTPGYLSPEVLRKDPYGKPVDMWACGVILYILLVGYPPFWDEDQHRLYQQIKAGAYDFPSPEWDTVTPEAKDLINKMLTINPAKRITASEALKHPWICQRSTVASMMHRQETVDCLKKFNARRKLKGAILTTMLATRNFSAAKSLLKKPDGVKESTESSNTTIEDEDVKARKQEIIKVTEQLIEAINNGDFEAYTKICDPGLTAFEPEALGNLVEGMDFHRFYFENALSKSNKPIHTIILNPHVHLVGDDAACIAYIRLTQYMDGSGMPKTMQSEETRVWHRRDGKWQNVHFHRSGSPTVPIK
Description: FIG. 4 provides a schematic illustrating the design of an in vitro experiment to evaluate the impact of the purified polypeptides described in FIG. 2D and shown in the left portion of FIG. 4 on CaMKIIδ (an isomer of CaMKII) activity. Activity of CaMKIIδ was measured using a bioluminescent and homogeneous ADP monitoring assay for kinases (ADP-GLO™), which is described in Zegzouti, et al. “ADP-Glo: A Bioluminescent and Homogeneous ADP Monitoring Assay for Kinases,” ASSAY and Drug Development Technologies, December 2009, 560-572, doi.org/10.1089/adt.2009.0222, the disclosure of which is incorporated herein by reference in its entirety for all purposes.
Inhibition of CaMKIIδ activity by the polypeptides was evaluated using a bioluminescent and homogeneous ADP monitoring assay for kinases (ADP-GLO™), which is described in Zegzouti, et al. “ADP-Glo: A Bioluminescent and Homogeneous ADP Monitoring Assay for Kinases,” ASSAY and Drug Development Technologies, December 2009, 560-572, doi.org/10.1089/adt.2009.0222, the disclosure of which is incorporated herein by reference in its entirety for all purposes (FIG. 4).

CaMKII = details: FIG. 2A, in vitro system of the cited papers; cited from earlier work
LKB1 knockout mice = test: Example 5: beat-to-beat variability (EKG) in LKB1 knockout mice (AF model); type: in vivo, mouse
From the text: Two different atrial fibrillation (AF) mouse models were used to test the efficacy of AIP×5 at treating AF of different origins. The two different AF mouse models were liver kinase B1 (LKB1) knock out mice and T-box transcription factor 5 (Tbx5) knock out mice.
LKB1-floxed or Tbx5-floxed mice were used to test the efficacy of AIP×5. AAV-NPPA-Cre was then used to conditionally knock out LKB1 or Tbx5 from the atria of the mice. NPPA is an atria specific promoter, ensuring that Cre recombinase directed knockout of LKB1 or Tbx5 was restricted to the atria. AAV-NPPA-FP (fluorescent protein) was used as a control virus. AAV-NPPA-FP has no Cre, and therefore the gene of interest is not knocked out. Uninjected mice were also included as a control to account for any effects caused by AAV injections. AAV-cTnT-AIP×5 or AAV-cTnT-CN19o were both tested as potential therapies to AF.
In short, P3 LKB1-floxed or Tbx5-floxed mice were injected (or not injected in the uninjected controls), and then EKG measurements of the mice were taken every two weeks starting at P14. At 12 weeks, the mice were sacrificed, and the sacrificed mice were tested for protein expression.
AF was calculated using the standard deviation of the beat-to-beat timing differences. A high beat-to-beat variability when sedated was indicative of atrial misfiring.
Statistical significance in the tests illustrated in FIGS. 10 and 11 was conducted using a 2-way Anova with post-hoc Dunnett's multiple comparisons to control (FP) group.

CaMKIIδ, Q13557 = test: cell-based or functional assay
CaMKIIδ, Q13557, sequence (Q13557 whole entry, stated change not applied): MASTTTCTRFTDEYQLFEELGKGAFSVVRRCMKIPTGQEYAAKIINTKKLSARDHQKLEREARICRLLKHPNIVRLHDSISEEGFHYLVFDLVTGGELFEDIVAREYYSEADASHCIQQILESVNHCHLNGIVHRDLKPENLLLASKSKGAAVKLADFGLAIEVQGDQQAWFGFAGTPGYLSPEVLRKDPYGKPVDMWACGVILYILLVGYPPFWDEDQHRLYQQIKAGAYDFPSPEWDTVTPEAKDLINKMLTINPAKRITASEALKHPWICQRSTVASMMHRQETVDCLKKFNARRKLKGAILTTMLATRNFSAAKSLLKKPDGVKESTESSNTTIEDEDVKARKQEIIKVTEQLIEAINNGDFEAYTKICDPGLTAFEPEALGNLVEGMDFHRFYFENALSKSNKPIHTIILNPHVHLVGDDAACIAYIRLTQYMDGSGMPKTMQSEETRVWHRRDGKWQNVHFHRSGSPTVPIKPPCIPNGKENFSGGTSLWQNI

[1] = molecular target: T1, autocamtide-2-related inhibitory …
AIPx5 multimer = molecular target: T2, AIPx5 multimer

Molecule	EC50 (CaMKIIδ)	EC50 (inhibition of CaMKIIδ activity, ADP-GLO bioluminescent ADP monitoring assay) (CaMKIIδ, Q13557)	further results
YKKALHRQEAVDALYKKALHRQEAVDALYKKALHRQEAVDAL [AIP×3]	543 nM	–	–
YKKALHRQEAVDALYKKALHRQEAVDALYKKALHRQEAVDAL [AIPx3 multimer]	–	543 nM	–
KRAPKLGQIGRQKAVDIED [CN19o]	–	1.6 nM	–
CaMKII (endogenous, mouse heart) (protein) MATTATCTRFTDDYQLFEELGKGAFSVVRRCVKKTSTQEYAAKIINTKKLSARDHQKLEREARICRLLKHPNIVRLHDSISEEGFHYLVFDLVTGGELFEDIVAREYYSEADASHCIHQILESVNHIHQHDIVHRDLKPENLLLASKCKGAAVKLADFGLAIEVQGEQQAWFGFAGTPGYLSPEVLRKDPYGKPVDIWACGVILYILLVGYPPFWDEDQHKLYQQIKAGAYDFPSPEWDTVTPEAKNLINQMLTINPAKRITADQALKHPWQRSTVASMMHRQETVECLRKFNARRKLKGAILTTMLVSRNFSAAKSLLNKKSDGGVKKRKSSSSVHLMPQSNNKNSLVSPAQEPAPLQTAMEPQTTVVHNATDGIKGSTESCNTTTEDEDLKAAPLRTGNGSLVPEGRSPRDRTAPSAGMQPQPSLCSSAMRKQEIIKITEQLIEAINNGDFEAYTKICDPGLTSFEPEALGNLVEGMDFHKFYFENLLSKNSKPIHTTILNPHVHVIGEDAACIAYIRLTQYIDGQGRPRTSQSEETRVWHRRDGKWLNVHYHCSGAPAAPLQ	–	–	phosphorylation of phospholamban (PLB) at threonine-17 in heart tissue exposed to isoproterenol (capillary Western, pPLB/PLB) [1]: contacting cells with AIP or AIP×5 resulted in a statistically significant decrease in PLB phosphorylation in cells exposed to ISO; phosphorylation of phospholamban (PLB) at threonine-17 in heart tissue exposed to isoproterenol (capillary Western, pPLB/PLB) (AIPx5 multimer): contacting cells with AIP or AIP×5 resulted in a statistically significant decrease in PLB phosphorylation in cells exposed to ISO
AIPx5 multimer (peptide) peptide: YKKALHRQEAVDALYKKALHRQEAVDALYKKALHRQEAVDALYKKALHRQEAVDALYKKALHRQEAVDAL	–	114 nM	–

The next lines start with results.

EC50 (CaMKIIδ)	EC50 (inhibition of CaMKIIδ activity, ADP-GLO bioluminescent ADP monitoring assay) (CaMKIIδ, Q13557)	Molecule	further results
1.6 nM	–	KRAPKLGQIGRQKAVDIED [CN19o, reference compound]	IC50 / potency of CaMKII inhibition compared with AIP (CaMKII): lower IC50 than AIP; also recorded: more potent inhibitor of CaMKII than AIP; beat-to-beat variability compared to LKB1 knockout mice alone (LKB1 knockout mice): performed worse in measures of beat-to-beat variability than LKB1 knockout mice alone; suppression of beat-to-beat variability (LKB1 knockout mice; AAV-cTnT vector, FIG. 10): did not suppress beat-to-beat variability
2.1 nM	–	KRAPKLGQIGRQKAVDIEDKRAPKLGQIGRQKAVDIEDKRAPKLGQIGRQKAVDIED [CN19oX3]	–
–	2.1 nM	CN19oX3 multimer (peptide) peptide: KRAPKLGQIGRQKAVDIEDKRAPKLGQIGRQKAVDIEDKRAPKLGQIGRQKAVDIED	–
–	6150 nM	YKKALHRQEAVDAL [autocamtide-2-related inhibitory peptide (AIP)]	–
